From paper doi:10.1101/461806 (bioRxiv, 2018)

B1: KLHL3-BB (human KLHL3 BTB-BACK, residues 24-276) (domain or fragment)
chain: RTITVNPAHMGKAFKVMNELRSKQLLCDVMIVAEDVEIEAHRVVLAACSPYFCAMFTGDMSESKAKKIEIKDVDGQTLSKLIDYIYTAEIEVTEENVQVLLPAASLLQLMDVRQNCCDFLQSQLHPTNCLGIRAFADVHTCTDLLQQANAYAEQHFPEVMLGEEFLSLSLDQVCSLISSDKLTVSSEEKVFEAVISWINYEKETRLEHMAKLMEHVRLPLLPRDYLVQTVEEEALIKNNNTCKDFLIEAMKYH
B2: A55BB (A55 BTB-BACK domain, residues 1-250) (domain or fragment)
chain: MNNSSELIAVINGFRNSGRFCDISIVINDERINAHKLILSGASEYFSILFSNNFIDSNEYEVNLSHLDYQSVNDLIDYIYGIPLSLTNDNVKYILSTADFLQIGSAITECENYILKNLCSKNCIDFYIYADKYNNKKIESASFNTILQNILRLINDENFKYLTEESMIKILSDDMLNIKNEDFAPLILIKWLESTQQSCTVELLRCLRISLLSPQVIKSLYSHQLVSSIYECITFLNNIAFLDESFPRYH

Tests used:
[1] = target: T1, Cul3NΔ22 (human Cul3 N-terminal domain, residues 23-388, I342R L346D) (human, UniProt Q13618 23-388, I342R | L346D); experiment: ITC
T1 sequence (Q13618 23-388 I342R/L346D): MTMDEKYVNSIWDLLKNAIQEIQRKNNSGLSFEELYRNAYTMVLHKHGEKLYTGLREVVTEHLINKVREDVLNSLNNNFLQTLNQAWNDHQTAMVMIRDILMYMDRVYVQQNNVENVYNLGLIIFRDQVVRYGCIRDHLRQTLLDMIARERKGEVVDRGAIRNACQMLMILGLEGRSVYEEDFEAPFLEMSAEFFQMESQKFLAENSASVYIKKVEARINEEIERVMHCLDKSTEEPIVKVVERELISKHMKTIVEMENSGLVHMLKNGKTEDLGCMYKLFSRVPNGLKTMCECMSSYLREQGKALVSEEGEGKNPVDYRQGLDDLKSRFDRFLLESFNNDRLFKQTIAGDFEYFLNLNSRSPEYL

[2] = target: Cul3N (human Cul3 N-terminal domain, residues 1-388, I342R L346D) (human, UniProt Q13618 1-388, I342R | L346D); experiment: ITC
Cul3N (human Cul3 N-terminal domain, residues 1-388, I342R L346D), sequence (Q13618 1-388 I342R/L346D): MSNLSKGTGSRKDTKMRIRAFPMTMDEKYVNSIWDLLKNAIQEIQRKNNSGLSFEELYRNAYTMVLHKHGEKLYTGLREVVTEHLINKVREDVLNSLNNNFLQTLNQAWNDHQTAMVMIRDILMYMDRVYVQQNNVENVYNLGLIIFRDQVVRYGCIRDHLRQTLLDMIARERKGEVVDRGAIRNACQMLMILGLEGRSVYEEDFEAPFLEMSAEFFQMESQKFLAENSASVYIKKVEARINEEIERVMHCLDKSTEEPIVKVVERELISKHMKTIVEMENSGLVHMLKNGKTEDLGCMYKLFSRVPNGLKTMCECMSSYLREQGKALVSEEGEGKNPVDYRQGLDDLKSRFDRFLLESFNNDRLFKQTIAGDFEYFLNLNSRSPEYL

[3] = target: T1, Cul3NΔ22 (human Cul3 N-terminal domain, …); experiment: SEC-MALS
SEC-MALS = target: the molecule itself; experiment: SEC-MALS

Binder	dH [1] [kcal/mol]	Kd [1] [nM]	stoichiometry N [1]	Kd [2] [nM]	stoichiometry N [2]	stoichiometry N [3]	stoichiometry N (SEC-MALS)
B1	-18.9	–	–	–	–	–	–
B2	-10.2	3	1	< 1	1	1 A55BB per Cul3NΔ22 (2:2 complex)	2
